Results on 61 molecules are retold here after patent publication US20170165337A1 (IMMATICS BIOTECHNOLOGIES, published 2017).

The target in the test is T1, HLA-A*02:01 (human).
T1 construct: MHC class I monomer of the UV-ligand exchange assay; also called peptide-receptive MHC molecules; MHC class I
The test can be described thus: UV peptide-exchange ELISA. The source says:
Candidate peptides for T cell based therapies according to the present invention were further tested for their MHC binding capacity (affinity). The individual peptide-MHC complexes were produced by UV-ligand exchange, where a UV-sensitive peptide is cleaved upon UV-irradiation, and exchanged with the peptide of interest as analyzed. Only peptide candidates that can effectively bind and stabilize the peptide-receptive MHC molecules prevent dissociation of the MHC complexes. To determine the yield of the exchange reaction, an ELISA was performed based on the detection of the light chain (β2m) of stabilized MHC complexes. The assay was performed as generally described in Rodenko et al. (Rodenko et al., 2006).
96 well MAXISorp plates (NUNC) were coated over night with 2 ug/ml streptavidin in PBS at room temperature, washed 4× and blocked forl h at 37° C. in 2% BSA containing blocking buffer. Refolded HLA-A*02:01/MLA-001 monomers served as standards, covering the range of 15-500 ng/ml. Peptide-MHC monomers of the UV-exchange reaction were diluted 100 fold in blocking buffer. Samples were incubated for 1 h at 37° C., washed four times, incubated with 2 ug/ml HRP conjugated anti-β2m for 1 h at 37° C., washed again and detected with TMB solution that is stopped with […]. Absorption was measured at 450 nm. Candidate peptides that show a high exchange yield (preferably higher than 50%, most preferred higher than 75%) are generally preferred for a generation and production of antibodies or fragments thereof, and/or T cell receptors or fragments thereof, as they show sufficient avidity to the MHC molecules and prevent dissociation of the MHC complexes.
On the technique in general: An ELISA detects its analyte on a solid surface through an enzyme-linked reagent.
As for YLVELSSLL, the peptide exchange yield was at least 75%.
Molecule SVHKGFAFV gave a peptide exchange yield of 50 to 75%.
With ILLKTEGINL, the peptide exchange yield was 50 to 75%.
As to YMFEEVPIVI, the peptide exchange yield was at least 75%.
Next, GLLQINDKIAL: 50 to 75%; VMDTHLVNI: at least 75%; LLKDGPEIGL: 20 to 50%.
Next, SQLDISEPYKV: 50 to 75%; VLAEQNIIPSA: 50 to 75%; VLMPTVYQQGV: 50 to 75%.
Next, ALPGGAAVAAV: at least 75%; RLQELTEKL: 50 to 75%.
Take SLSFLVPSL: the peptide exchange yield fell in the range of 50 to 75%.
Next, ALLSSQLAL: 50 to 75%; ALTKTNLQL: 50 to 75%.
To HMQDVRVLL belongs 50 to 75%.
To YLQEVPILTL belongs at least 75%; to TLLLGLTEV, 50 to 75%; to ALHRPDVYL, 50 to 75%.
SMKDDLENV: the peptide exchange yield lay within 20 to 50%.
Next, TLTFRVETV: 50 to 75%; YQLELHGIEL: at least 75%.
To YLGGFALSV belongs at least 75%; to SMDDGMINV, 50 to 75%; to YLTFLPAEV, 50 to 75%.
With TLYDMLASI, the peptide exchange yield was in the range of 50 to 75%.
As to VMGDIPAAV, the peptide exchange yield was 20 to 50%.
Next, VMDDQRDLI: 20 to 50%; VLSHNLYTV: 50 to 75%.
Turning to VMDPTKILI, the peptide exchange yield was at least 75%.
The molecule QVMEKLAAV came in with a peptide exchange yield of 50 to 75%.
Next, YLLDQSFVM: at least 75%; YIFDGSDGGV: 50 to 75%.
Next, TLVPPAALISI: 50 to 75%.
Next, TLDTSKLYV: 50 to 75%; YLLLQTYVL: 10 to 20%; VMLEMTPEL: 50 to 75%.
As for ILQAELPSL, the peptide exchange yield is 50 to 75%.
Next, YLDLSNNRL: 50 to 75%; VLFFNVQEV: 50 to 75%; KLLVQDFFL: 50 to 75%.
Next, YIQEYLTLL: 50 to 75%.
Next, VLDDRELLL: 50 to 75%.
YLDNVLAEL came in with a peptide exchange yield of at least 75%.
In turn, LIDVKPLGV displayed a peptide exchange yield of 50 to 75%.
Regarding VLLSIPFVSV, the peptide exchange yield was in the range of 50 to 75%.
The molecule VLLGLEMTL gave a peptide exchange yield of 50 to 75%.
Next, SLQEEKLIYV: 50 to 75%; VLLSVPGPPV: 50 to 75%; FTVPRVVAV: 50 to 75%.
Consider VVMGTVPRL, for which the peptide exchange yield was 50 to 75%.
Next, VLAELPIIVV: 50 to 75%; SLPEAPLDV: 50 to 75%.
The molecule GLSQANFTL displayed a peptide exchange yield of 50 to 75%.
Next, IIADLDTTIMFA: 50 to 75%; TVIENIHTI: 20 to 50%; TLDPNQVSL: 20 to 50%.
Next, YVDDVFLRV: at least 75%; ALVDPGPDFVV: 50 to 75%.
To LLGEFSIKM belongs 50 to 75%; to TLDDDLDTV, 20 to 50%.
